Measurements reported in patent publication US20150355179A1, “CDKACT BIOSENSORS-FLUORESCENT POLYPEPTIDE TO PROBE THE ACTIVITY OF CDK/CYCLIN KINASES IN VITRO, IN CELLULO AND IN VIVO” (CENTRE NATIONAL DE LA RECHERCHE SCIENTIFIQUE (CNRS), priority 2012, published 2015).

Experiments:
Plk3 = Plk3 (Homo sapiens, UniProt Q9H4B4); assay: Real-time fluorescence kinase assay with Plk3 kinase (specificity); assay type: biochemical; details: 25 nM CDKACTH1, 25, 50, 75 nM Plk3
Method: (§1) Fluorescence kinase assays were performed in 96-well plates in a thermostated chamber (Polarstar BMG) at 30° C. in 200 ul phosphate buffer saline, pH 7.2, 150 mM NaCl, in the presence of 5 mM MgCl2, 0.5 mM ATP, except when stated otherwise. The fluorescence of Cy3-labelled CDKACTH1 with recombinant CDK/Cyclin complexes or with cell extracts was monitored over time. Changes in Cy3 fluorescence emission were recorded at 590 nm following excitation at 544 nm. In all experiments, the fluorescence of CDKACTH1-Cy3 alone was substracted from all other values. Data analysis and curve fitting were performed using the GraFit Software (Erathicus Ltd).
(§2) To address the issue of specificity, we asked whether other kinases could phosphorylate and thereby affect the fluorescence of CDKACTH1. We first examined CDK1/Cyclin B and CDK4/Cyclin D (FIGS. 3A and B).

[1] = Solubility of the biosensor after removal of the GST tag; assay type: physicochemical
Method: The […]1 biosensor was engineered by cloning residues 367-603 of PBD from Plk1 into the pGex6[…]. […]1 was expressed in E. coli, then purified on High performance glutathione Sepharose in 50 mM TrisHCl, pH 7.4, 150 mM NaCl, then further purified by Gel Filtration chromatography. […] Following purification, […]1 was labelled with a 10fold molar excess Cy3-maleimide and further purified on NAPS columns to remove excess label.

GST-CDK1-Cyclin B = biological target: T1, GST-CDK1-Cyclin B (Homo sapiens, UniProt P06493); assay: Radioactive endpoint kinase assay with GST-CDK1-Cyclin B; assay type: biochemical; details: radioactive gamma-ATP, 30 min at 30° C., histone H1 positive control
T1 construct: made in house; host or cells: E. coli
T1 sequence (P06493 whole entry, species assumed): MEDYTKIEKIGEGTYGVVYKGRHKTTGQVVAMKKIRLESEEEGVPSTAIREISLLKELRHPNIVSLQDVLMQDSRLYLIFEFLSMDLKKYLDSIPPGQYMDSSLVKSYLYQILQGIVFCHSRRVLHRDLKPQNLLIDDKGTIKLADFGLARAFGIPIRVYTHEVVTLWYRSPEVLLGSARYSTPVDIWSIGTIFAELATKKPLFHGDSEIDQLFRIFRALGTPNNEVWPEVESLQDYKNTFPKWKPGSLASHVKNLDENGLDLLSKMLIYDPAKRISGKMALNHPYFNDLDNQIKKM
T1 sequence (P14635 whole entry partner, species assumed): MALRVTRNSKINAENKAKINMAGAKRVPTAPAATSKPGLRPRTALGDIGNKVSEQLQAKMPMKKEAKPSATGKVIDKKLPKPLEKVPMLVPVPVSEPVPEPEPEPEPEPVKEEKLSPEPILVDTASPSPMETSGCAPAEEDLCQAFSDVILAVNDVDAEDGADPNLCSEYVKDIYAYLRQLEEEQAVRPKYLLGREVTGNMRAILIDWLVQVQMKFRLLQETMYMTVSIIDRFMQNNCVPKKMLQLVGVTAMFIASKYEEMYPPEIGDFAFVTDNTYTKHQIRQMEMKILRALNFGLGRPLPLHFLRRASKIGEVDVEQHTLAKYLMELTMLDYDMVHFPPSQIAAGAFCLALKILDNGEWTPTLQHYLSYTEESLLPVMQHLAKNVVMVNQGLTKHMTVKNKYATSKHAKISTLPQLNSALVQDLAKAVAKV

GST-CDK2/Cyclin A = biological target: T2, GST-CDK2/Cyclin A (Homo sapiens, UniProt P24941); assay: Radioactive endpoint kinase assay with GST-CDK2/Cyclin A; assay type: biochemical; details: radioactive gamma-ATP, 30 min at 30° C., histone H1 positive control
T2 construct: made in house; host or cells: E. coli
Method: In order to characterize […]1 biosensor in vitro, we first asked whether it could be used to monitor recombinant kinase activity in a real-time assay. […] A kinase assay was performed by addition of GST-CDK2/CIV complexed with His-Cyclin A to […]1, in the presence of 0.5 mM ATP and 5 mM MgCl2, and […]1 fluorescence was monitored over time. Phosphorylation of 5 uM […]1 or histone H1 were performed in 50 mM Tris pH 7.5, 5 mM MgCl2, 0.5 mM ATP, and 33P-gamma-ATP for 30 min at 30° C. The reaction was stopped by addition of Laemmli buffer, and samples were run on SDS-PAGE then exposed by autoradiography.

CDK2/Cyclin A = biological target: T3, CDK2/Cyclin A (Homo sapiens, UniProt P24941); assay: Real-time fluorescence kinase assay with recombinant active CDK2/Cyclin A; assay type: biochemical
T3 construct: made in house; host or cells: E. coli
Method: (§3) In order to characterize CDKACT-H1 biosensor in vitro, we first asked whether it could be used to monitor recombinant kinase activity in a real-time assay.
as §1, §3
In vitro characterization was performed as described in Example 2. […] Assays were performed at 30° C. for 1600s. Fluorescence emission of Cy5 was measured at 675 nm following excitation at 645 nm on Polarstar™ fluorimeter.
Assays were performed at 30° C. for 1600s. Fluorescence emission of Cy3 was measured at 590 nm following excitation at 544 nm on Polarstar™ fluorimeter.

Plk1 = Plk1 (Homo sapiens, UniProt P53350); assay: Real-time fluorescence kinase assay with Plk1 kinase (specificity); assay type: biochemical; details: 25 nM CDKACTH1, 25, 50, 75 nM Plk1
Chain of Plk1 (P53350 whole entry): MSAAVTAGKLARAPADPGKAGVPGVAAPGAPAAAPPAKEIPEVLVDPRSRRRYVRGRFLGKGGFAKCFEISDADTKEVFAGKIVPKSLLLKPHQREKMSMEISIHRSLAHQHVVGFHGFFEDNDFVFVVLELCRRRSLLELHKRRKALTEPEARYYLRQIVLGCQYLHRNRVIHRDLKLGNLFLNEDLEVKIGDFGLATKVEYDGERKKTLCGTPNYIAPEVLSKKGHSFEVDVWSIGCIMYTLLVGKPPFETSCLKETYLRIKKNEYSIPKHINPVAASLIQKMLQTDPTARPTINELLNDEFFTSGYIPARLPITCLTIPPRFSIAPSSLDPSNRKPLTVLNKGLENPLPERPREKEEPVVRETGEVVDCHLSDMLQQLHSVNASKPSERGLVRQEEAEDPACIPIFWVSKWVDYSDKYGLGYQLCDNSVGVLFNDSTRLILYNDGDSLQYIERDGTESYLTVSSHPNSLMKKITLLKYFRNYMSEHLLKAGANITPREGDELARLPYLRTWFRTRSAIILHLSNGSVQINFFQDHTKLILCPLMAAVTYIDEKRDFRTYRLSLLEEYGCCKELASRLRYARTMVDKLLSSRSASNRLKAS
Method: as §1, §2

CDK1/Cyclin B = biological target: T4, CDK1/Cyclin B (Homo sapiens, UniProt P06493); assay: Real-time fluorescence kinase assay with recombinant CDK1/Cyclin B; assay type: biochemical
T4 construct: made in house; host or cells: E. coli
T4 sequence (P06493 whole entry, species assumed): as the sequence (P06493 whole entry, species assumed) above
T4 sequence (P14635 whole entry partner, species assumed): as the sequence (P14635 whole entry partner, species assumed) above
Method: as §1, §2

CDK4/Cyclin D = biological target: T5, CDK4/Cyclin D (Homo sapiens, UniProt P11802); assay: Real-time fluorescence kinase assay with recombinant CDK4/Cyclin D; assay type: biochemical; details: dependent on MgCl2/ATP
T5 construct: made in house; host or cells: E. coli
T5 sequence (P11802 whole entry, species assumed): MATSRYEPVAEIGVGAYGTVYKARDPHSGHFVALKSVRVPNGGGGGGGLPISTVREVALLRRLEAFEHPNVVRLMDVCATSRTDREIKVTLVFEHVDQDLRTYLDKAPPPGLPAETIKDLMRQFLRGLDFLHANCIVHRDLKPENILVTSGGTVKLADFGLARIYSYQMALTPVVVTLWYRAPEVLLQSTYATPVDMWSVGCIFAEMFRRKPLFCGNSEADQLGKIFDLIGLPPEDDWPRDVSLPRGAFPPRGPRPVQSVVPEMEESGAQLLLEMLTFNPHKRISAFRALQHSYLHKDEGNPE
T5 sequence (P24385 whole entry partner, species assumed): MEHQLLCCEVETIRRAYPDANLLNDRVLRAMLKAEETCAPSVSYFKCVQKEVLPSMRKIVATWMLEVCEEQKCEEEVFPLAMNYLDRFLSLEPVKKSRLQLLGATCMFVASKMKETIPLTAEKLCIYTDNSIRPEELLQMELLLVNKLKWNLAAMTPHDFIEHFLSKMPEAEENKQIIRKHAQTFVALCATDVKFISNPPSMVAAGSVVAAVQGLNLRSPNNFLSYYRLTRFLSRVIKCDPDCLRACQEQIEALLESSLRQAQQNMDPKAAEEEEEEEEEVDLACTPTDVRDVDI
Method: as §1, §2

Chain of Plk3 (Q9H4B4 whole entry, species assumed): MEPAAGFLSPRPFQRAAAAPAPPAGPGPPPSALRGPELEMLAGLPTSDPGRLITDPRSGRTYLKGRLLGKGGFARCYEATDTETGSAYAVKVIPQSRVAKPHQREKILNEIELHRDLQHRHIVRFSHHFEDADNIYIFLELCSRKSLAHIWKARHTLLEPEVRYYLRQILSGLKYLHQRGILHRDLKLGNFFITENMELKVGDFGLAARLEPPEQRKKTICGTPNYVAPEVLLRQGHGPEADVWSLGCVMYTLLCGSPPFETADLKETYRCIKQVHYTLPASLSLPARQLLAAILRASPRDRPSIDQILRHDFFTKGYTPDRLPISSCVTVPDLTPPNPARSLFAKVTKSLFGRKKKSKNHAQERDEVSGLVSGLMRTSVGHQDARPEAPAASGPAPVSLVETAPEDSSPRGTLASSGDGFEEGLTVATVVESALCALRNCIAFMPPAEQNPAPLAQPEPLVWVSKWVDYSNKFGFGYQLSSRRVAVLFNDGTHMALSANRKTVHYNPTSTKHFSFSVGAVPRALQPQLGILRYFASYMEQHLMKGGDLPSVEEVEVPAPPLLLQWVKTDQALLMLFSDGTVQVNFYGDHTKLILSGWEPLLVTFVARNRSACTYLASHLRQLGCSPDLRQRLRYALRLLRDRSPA

Molecule | change in CDKACTH1 fluorescence induced by the kinase (Plk3) | solubility upon removal of the GST tag [1] | phosphorylation of the biosensor in standard radioactive kinase assay (GST-CDK1-Cyclin B) | phosphorylation of the biosensor in standard radioactive kinase assay (GST-CDK2/Cyclin A) | sensor concentration giving the best response (CDK2/Cyclin A; for 25-50 nM CDK2/CyclinA) [nM] | change in CDKACTH1 fluorescence induced by the kinase (Plk1) | phosphorylation of the biosensor by the kinase (fluorescence assay) (CDK1/Cyclin B) | sensor concentration giving the optimal response (CDK1/Cyclin B; for 50-100 nM CDK1/Cyclin B) [nM] | change in CDKACTH1 fluorescence induced by the kinase (CDK4/Cyclin D) | competition assay: effect on phosphorylation of CDKACTH1 (CDK2/Cyclin A; 25 nM CDKACTH1-Cy3, 25 nM CDK2/Cyclin A, 25 or 100 nM unlabelled CDKACTH1, 25 or 500 nM histone)
CDKACTH1 (protein, left off: a dimerising Fc or GST) GEVVDSHLSDMLQQLHSVNASKPSERGLVRQEEAEDPASIPIFWVSKWVDYSDKYGLGYQLSDNSVGVLFNDSTRLILYNDGDSLQYIERDGTESYLTVSSHPNSLMKKITLLKYFRNYMSEHLLKAGANITPREGDELARLPYLRTWFRTRSAIILHLSNGSVQINFFQDHTKLILSPLMAAVTYIDEKRDFRTYRLSLLEEYGSSKELASRLRYARTMVDKLLSSRSASNRLKASPGAGGTGGLPGGGGCSTPKKAKKL | did not induce any significant changes | complete precipitation | is phosphorylated | is phosphorylated | 25 | did not induce any significant changes | indeed phosphorylated | 10 | reminiscent of CDK2/Cyclin A | –
unlabelled sensor: CDKACTH1 biosensor without fluorescent label, used as competitive substrate (protein, left off: a dimerising Fc or GST) GEVVDSHLSDMLQQLHSVNASKPSERGLVRQEEAEDPASIPIFWVSKWVDYSDKYGLGYQLSDNSVGVLFNDSTRLILYNDGDSLQYIERDGTESYLTVSSHPNSLMKKITLLKYFRNYMSEHLLKAGANITPREGDELARLPYLRTWFRTRSAIILHLSNGSVQINFFQDHTKLILSPLMAAVTYIDEKRDFRTYRLSLLEEYGSSKELASRLRYARTMVDKLLSSRSASNRLKASPGAGGTGGLPGGGGCSTPKKAKKL | – | – | – | – | – | – | – | – | – | prevented full phosphorylation
